Source: PMC11940548

Key:
[1] = target: chimeric MotB1 (N-terminal transmembrane domain of Paenibacillus sp. TCA20 MotB1 joined to the C-terminal periplasmic domain of E. coli MotB) (Paenibacillus sp. TCA20 | E. coli) (UniProt P0AF06); assay: cryo-EM structure; co-expressed chimeric MotA1/MotB1-His6 complex, solubilised in LMNG, purified by Ni-affinity and SEC, reconstituted into peptidisc; 20 mM Tris-HCl pH 8.0, 100 mM NaCl; single particle analysis, three classes (3.3, 3.3 and 3.5 Å)
[2] = target: MotA1 from Paenibacillus sp. TCA20 (Paenibacillus sp. TCA20); assay: as above

stoichiometry N [1] | stoichiometry N [2] | Substance
2 |  | chimeric MotB1 (N-terminal transmembrane domain of Paenibacillus sp. TCA20 MotB1 joined to the C-terminal periplasmic domain of E. coli MotB) (from UniProt P0AF06 104-302)
 | 5 | MotA1 from Paenibacillus sp. TCA20 (natural protein)
